Some targets named below: HLA-A*02:03; HLA-A*02:06; HLA-A*02:02; HLA-A*31:01; HLA-A*11:01; HLA-A*03:01; HLA-A*33:01; HLA-A*68:01.
Common to all, as to assay: IEDB peptide-MHC binding, purified MHC/competitive/radioactivity; filed as Kd, often an IC50 or EC50 that approximates it; ≥ and ≤ were set here for values at or beyond the usual limits of such assays
Setting [1] is: source organism: Vaccinia virus WR.
Setting [2] is: source organism: SARS coronavirus Tor2.
The mark [3] stands for this setting: source organism: Lymphocytic choriomeningitis virus (strain Armstrong).
The mark [4] stands for this setting: source organism: Dengue virus 4 Philippines/H241/1956.
Setting [5] is: source organism: Mammarenavirus tacaribeense.

A value given as a limit tells only on which side of the number the result lay.

Regarding AILHNIYRL, the dissociation constant Kd stood at 0.814 µM in the test with HLA-A*02:03 (setting [1]), 0.0438 µM with HLA-A*02:06 (setting [1]) and 0.106 µM with HLA-A*02:02 (setting [1]).
As to ALKNSQAEL, the Kd is 0.0168 µM with HLA-A*02:03 (setting [1]), at least 32.9 µM in the test with HLA-A*02:06 (setting [1]) and 0.0709 µM in the test with HLA-A*02:02 (setting [1]).
Regarding ALTDVEKRIL, the results for the Kd with HLA-A*02:03 (setting [1]), in the test with HLA-A*02:06 (setting [1]) and with HLA-A*02:02 (setting [1]) were 0.127 µM, 0.934 µM and 0.0969 µM, respectively.
In the same order, the values of ALWDSNFFT are at least 28.2 µM, at least 23.1 µM and 1.06 µM.
The corresponding values for ATCALVSDCA are at least 23.4 µM, 9.14 µM and at least 34.7 µM.
Consider CVSNLDISSV, for which the Kd with HLA-A*02:03 (setting [1]) is 0.0023 µM; in the test with HLA-A*02:06 (setting [1]), 0.0479 µM; with HLA-A*02:02 (setting [1]) it was 0.0518 µM.
DIIDLLLPST: the dissociation constant Kd came to 6.59 µM with HLA-A*02:03 (setting [1]), 0.284 µM in the test with HLA-A*02:06 (setting [1]) and 14.5 µM with HLA-A*02:02 (setting [1]).
In the case of DIKYISRDEL, the Kd with HLA-A*02:03 (setting [1]) was 9.57 µM; with HLA-A*02:06 (setting [1]), 2.06 µM; with HLA-A*02:02 (setting [1]), 2.55 µM.
As for DITNILGGVL, the dissociation constant (Kd) with HLA-A*02:03 (setting [1]) was found to be 3.68 µM; with HLA-A*02:06 (setting [1]), 18.9 µM; in the test with HLA-A*02:02 (setting [1]), 12.3 µM.
The corresponding values for DVQRTRCKYV are 6.47 µM, 9.51 µM and 1.07 µM.
On to EIDVSEVKT, for which the Kd with HLA-A*02:03 (setting [1]) was at least 78.1 µM; with HLA-A*02:06 (setting [1]), at least 77.1 µM; in the test with HLA-A*02:02 (setting [1]), at least 46 µM.
Turning to ELEKCTSEI, the Kd in the test with HLA-A*02:03 (setting [1]) is at least 56 µM; with HLA-A*02:06 (setting [1]) it was at least 57.9 µM; in the test with HLA-A*02:02 (setting [1]), at least 21.1 µM.
In the same order, the values of ELVMDKNHAI are at least 70.4 µM, at least 69.8 µM and 14.2 µM.
For the sequence EMQLKIDKLT, the figures for the Kd with HLA-A*02:03 (setting [1]), with HLA-A*02:06 (setting [1]) and with HLA-A*02:02 (setting [1]) were 6.82 µM, at least 69.8 µM and 9.66 µM, respectively.
With EMVEYLENQL, the Kd with HLA-A*02:03 (setting [1]) came to 0.209 µM; in the test with HLA-A*02:06 (setting [1]) it was 0.42 µM; with HLA-A*02:02 (setting [1]), 0.212 µM.
In the case of ETIQKDINI, the values for the Kd in the test with HLA-A*02:03 (setting [1]), with HLA-A*02:06 (setting [1]) and in the test with HLA-A*02:02 (setting [1]) were at least 50.8 µM, at least 34.9 µM and at least 36.6 µM, respectively.
FLCLFLLPSL: the equilibrium dissociation constant (Kd) in the test with HLA-A*02:03 (setting [2]) came to 0.00286 µM; with HLA-A*02:06 (setting [2]), 0.000373 µM; with HLA-A*02:02 (setting [2]), 0.000531 µM.
The corresponding values for FLNRFTTTL are 0.00102 µM, 0.0581 µM and 0.000659 µM.
With FLYIIKLVFL, the equilibrium dissociation constant (Kd) with HLA-A*02:03 (setting [2]) amounted to 0.0224 µM; with HLA-A*02:06 (setting [2]), 0.865 µM; with HLA-A*02:02 (setting [2]) it was 0.00728 µM.
On to FMECNLNELV, for which the dissociation constant Kd with HLA-A*02:03 (source organism: Homo sapiens) came out at 0.0702 µM.
On to FSLGAAVKA, for which the dissociation constant Kd stood at 13.3 µM with HLA-A*02:03 (setting [3]), 0.327 µM with HLA-A*02:06 (setting [3]) and 6.46 µM with HLA-A*02:02 (setting [3]).
For the sequence FTILEYLYIM, the Kd with HLA-A*02:03 (setting [1]) is 3.2 µM; with HLA-A*02:06 (setting [1]) it was 0.0405 µM; in the test with HLA-A*02:02 (setting [1]) it was 0.355 µM.
For the sequence ILNAHEDGV, the Kd with HLA-A*02:03 (setting [4]) was found to be 0.0932 µM.
With KMFESTYRGA, in the test with HLA-A*02:03 (source organism: Dengue virus 4 Dominica/814669/1981), the Kd stood at 0.0104 µM.
Take LIASLVMLLV: the Kd in the test with HLA-A*02:03 (setting [4]) is 0.0647 µM.
For NQAAVLMGL, the equilibrium dissociation constant (Kd) with HLA-A*02:06 (setting [4]) worked out at 0.00698 µM.
Turning to PTFQLLNMIK, the Kd with HLA-A*31:01 (setting [1]) is 12.5 µM; in the test with HLA-A*11:01 (setting [1]), 0.0938 µM; with HLA-A*03:01 (setting [1]), 9.05 µM; with HLA-A*33:01 (setting [1]) it was at least 70 µM; in the test with HLA-A*68:01 (setting [1]), at least 10 µM.
In the case of PVETLFGSY, the Kd with HLA-A*31:01 (setting [1]) was at least 62.3 µM; with HLA-A*11:01 (setting [1]) it was 2.2 µM; with HLA-A*03:01 (setting [1]), at least 38.9 µM; with HLA-A*33:01 (setting [1]), at least 77.7 µM; with HLA-A*68:01 (setting [1]) it was at least 33.5 µM.
On to QLPKRGVRVR, for which the Kd in the test with HLA-A*31:01 (setting [1]) was 5.38 µM; with HLA-A*11:01 (setting [1]) it was at least 47 µM; in the test with HLA-A*03:01 (setting [1]), at least 22.6 µM; with HLA-A*33:01 (setting [1]), at least 70 µM; with HLA-A*68:01 (setting [1]), at least 20.1 µM.
For the sequence QYIHCFRKPH, the Kd was 0.386 µM with HLA-A*31:01 (setting [5]); at least 69.7 µM with HLA-A*11:01 (setting [5]); at least 70 µM with HLA-A*03:01 (setting [5]); 0.14 µM in the test with HLA-A*33:01 (setting [5]); at least 57.3 µM with HLA-A*68:01 (setting [5]).
In the case of RVYANLGER, the Kd is 0.0063 µM with HLA-A*31:01 (setting [2]); 0.126 µM with HLA-A*11:01 (setting [2]); 0.0186 µM with HLA-A*03:01 (setting [2]); at least 45.4 µM with HLA-A*33:01 (setting [2]); 0.601 µM in the test with HLA-A*68:01 (setting [2]).
Take SAQCFKMFYK: the Kd is 0.0268 µM with HLA-A*31:01 (setting [2]); 0.00459 µM in the test with HLA-A*11:01 (setting [2]); 0.0184 µM in the test with HLA-A*03:01 (setting [2]); 0.398 µM with HLA-A*33:01 (setting [2]); 0.0305 µM in the test with HLA-A*68:01 (setting [2]).
Take SFSNTIQSY: the dissociation constant Kd was at least 77.9 µM with HLA-A*31:01 (setting [1]); 4.3 µM in the test with HLA-A*11:01 (setting [1]); 11.7 µM in the test with HLA-A*03:01 (setting [1]); at least 77.7 µM in the test with HLA-A*33:01 (setting [1]); 10.4 µM with HLA-A*68:01 (setting [1]).

A word on the Kd: it is the concentration at which binding is half-saturated.

The values are drawn from the Immune Epitope Database (IEDB).
